From publication PMC9158119 (Frontiers in Immunology, 2022) come the findings set out here.

Experiment [1] has as its target T1, SARS-CoV-2 original strain spike receptor-binding domain (S-RBD) (SARS-CoV-2, UniProt P0DTC2).
Experiment [2] addresses T1, SARS-CoV-2 original strain spike …. As to the kind of experiment: SPR. As to conditions: both partners purified.

For orientation: Kd means the equilibrium constant for the complex coming apart. A high value points to lower affinity.

B1: Nb-002 (VHH)
VHH: EVQLVESGGALVQPGGSLRLSCAASGFTLDAAAIGWFRQAPGKEREWVSCINRVGGGFYSDSAKGRFTISRDNDKNTVYLQMNSLKFEDTAVYYCAADSDSPRFGCSDSRARYEYWGQGTQVTASS
B1: the binding result in experiment [1] is given as “binds”.

B2: Nb-004 (VHH)
VHH: QLQLVESGGGLVQAGGSLGLSCAASGITLGDYRMGWYRQAPGKQRELVARFTNAGAILYGDSVKGRFTISMNNAKNTVYLQINSLKPEDTAVYYCNARTTRGIDNWGQGTQVTVSS
As to B2, the binding result in experiment [1] was “binds”.

B3: Nb-001 (VHH)
VHH: EVQLVESGGGLVQAGGSLRLSCAASGSIFRLYTIDWYRQAPGKQRELVATISGTSPTNYADSVKGRATISRDNAKNTVYLQINSLKPEDTAVYYCHTVSGNTWGQGTQVTVSS
As for B3, the binding result in experiment [1] is given as “binds”.

B4: Nb-005 (VHH)
VHH: EVQLVESGGGLVQAGGSLRLSCAASGSAFNDYAMGWYRQAPGKQRELVARFTNVGATLSSNSVKGRFTISRDNAKNTVFLQMNSLKPEDTAVYYCHAGHRILLGREYWGQGTQVTVSS
For the molecule B4, the binding result in experiment [1] is “binds”.

B5: Nb-008 (VHH)
VHH: EVQVVESGGGLVQAGGSLRLSCAASGSTSNLRVTGWYRQTPGKQRELVAAISNAGATVYPDSVAGRFTLSRDNAKNTVTLQINSLKPEDTAVYYCNARRFGRDYWGQGTQVTVSS
On to B5, for which the binding result in experiment [1] was “binds”.

B6: Nb-006 (VHH)
VHH: QVQLVESGGGLVQAGESLRLSCAASGSTVSPYTMGWYRQAPGKQREWVATIRSDRSTNYADSVLGRFTISRDNAKNTVYLQMNSLKPEDTAVYQCYALQGGLLLGQGTQVTVSS
Consider B6, for which the binding result in experiment [1] is recorded as “binds”.

B7: Nb-007 (VHH)
VHH: QLQLVESGGGLVQAGGSMRLSCAASISFSSFPMGWHRQAPGKQRELVAKTGIGGTAYDDSVKGRFTISRDNTKNTVYLQMNSLKVEDTAVYYCWGWRMNDYWGQGTQVTVSS
Molecule B7 displayed a dissociation constant (Kd) in experiment [2] of 0.0674 nM.

B8: Nb-010 (VHH)
VHH: EVQVVESGGGLVQAGGSLRLSCTASGSTFTRYPMGWYRQAPGKQRELVAGFTVVGATIYADSVKGRFALSRDNAKKTIDLQLDSLKPDDTGVYYCSMYTYWGQGTQVTVSS
Take B8: the binding result in experiment [1] is listed as “binds”.

B9: Nb-003 (VHH)
VHH: EVQVVESGGGLVQAGGSLRVSCAASGSTSSRYIMAWYRQAPGKQRELVASITLVGATIYKDSVKGRFTISGDNAKKTVYLQMNNLKPEDTAVYYCNQIDPLIGGPGYWGQGIQVTVSS
On to B9, for which, in experiment [1], the binding result is listed as “binds”.
